Measurements taken from patent publication US12098378B2, “Anti-fungal polypeptides” (priority 2020, dated 2024).

Assays:
Fraction 3 = assay: Bio-layer interferometry (BLI) binding; parameters: species or system Botrytis cinerea; conditions: compared to a reference VHH (FIG. 12)
Description: 10G11 binding to Fraction 3 was further confirmed by bio-layer interferometry (BLI). BLI is a label-free optical analytical technique for measuring biomolecular interactions (Kamat et al, 2017. Analytical biochemistry 536: 16-31; Wallner et al. 2013. Journal of Pharmaceutical and Biomedical Analysis 72: 150-154).

Podosphaera aphanis = assay: Control of powdery mildew on strawberry in greenhouse; type: in vivo; conditions: 250, 500, 750 g ai/ha, 6 applications
Protocol: Four replicates of 20 strawberry plants (3 m^2 per plot) were treated with 0.576 or 0.72 l of spray solution, corresponding with a spray volume of […], according to local practice. The spray mix contained a concentration of active ingredient as described in Table 6. Six applications were performed spaced 7 days apart. No artificial infection was performed and first spray was placed before first symptoms appeared. The efficacy of 10G11 was compared to that of a non-treated control and the chemical reference Topas 2.5 WG (Penconazole). In addition, a chemical rotation of Ganzo (Myclobutanil), Topas 2.5 WG (Penconazole) and Signum (Boscalid+Pyraclostrobin) was evaluated. A seventh treatment replaced part of the chemicals in this chemical rotation by 10G11 as described in Table 6.
Efficacy assessments were performed on 20 leaves per plot, assessing the percentage of leaf area affected (PESSEV) and the percentage of leaves affected (PESINC) on the whole plot. Assessments were performed on a weekly basis and continued until 2 weeks after the last application.

Uncinula necator = assay: Control of powdery mildew on grapevine in field; type: in vivo; conditions: 250, 500, 750 g ai/ha, 8 applications, until four weeks after application
Protocol: Four replicates of 10 vines (25 m^2 per plot) were treated with 8 or 10 l of spray solution, corresponding with a spray volume of […], according to local practice and growth stage of the vines. The spray mix contained a concentration of active ingredient as described in Table 4. Eight applications were performed, spaced on average 10 days apart. No artificial infection was performed and first spray was at pre-bloom stage, before first powdery mildew symptoms. The efficacy 10G11 was compared to that of a non-treated control and the chemical reference Topas 10 EC (Penconazole). In addition, a chemical rotation of Tiovit Jet (sulphur), Vivando (Metrafenon), Sercadis (Fluxapyroxad), Prosper 500 EC (Spiroxamine) and Karathane Star (Meptyldinocap) was evaluated. A seventh treatment replaced part of the chemicals in this chemical rotation by 10G11 as described in Table 4.
Efficacy assessments were performed on leaves by evaluating the percentage of leaf area affected on 100 leaves randomly selected from the same position on the shoot. In addition, powdery mildew infection on fruits was assessed as the percentage of infected area of 50 randomly selected bunches per plot. Assessments continued until 4 weeks after the last application.

Botrytis cinerea = assay: Control of Botrytis cinerea on grapevine in field; type: in vivo; conditions: 250, 500, 750 g ai/ha, 4 applications; until 20 days after the last application (FIG. 19)
Protocol: Four replicates of 10 vines (33.6 m^2 per plot) were treated with 8 l of spray solution, corresponding with a spray volume of […], according to local practice. The spray mix contained a concentration of active ingredient as described in Table 3. Four applications were done at specific phenological development stages of the vines: BBCH 77, BBCH 79, BBCH 81 and BBCH 85 (according to the standardised BBCH-scale). No artificial infection was performed, and first spray was placed preventative, based on forecasted disease pressure. The efficacy of 10G11 was compared to that of a non-treated control and the chemical reference Teldor (Fenhexamid). In addition, a chemical rotation of Switch (Fludioxonil+cyprodinil) and Teldor and a rotation of Switch and 10G11 was tested.
Disease severity is recorded as percent severity on a scale of 0-100% (PESSEV). Recording started when first symptoms appeared, just prior to the fourth application. Additional assessments were performed 13 and 20 days after the last application. At each assessment, the percentage of grape bunch surface affected by the disease was estimated on 100 randomly selected bunches per plot.

Phakopsora pachyrhizi = assay: Control of soybean rust on soybeans in glasshouse; type: in vivo
Protocol: Four replicates of pot-grown soybean plants (4 plants/pot) were sprayed with 125 ml aqueous suspension, containing a concentration of active ingredient of as described in Table 1. Two applications were done spaced 14 days apart. Plants were inoculated once with Phakopsora pachyrhizi two days after the first application (application A) of active ingredient. The growth inhibitory characteristics of 10G11Q were compared to those of a non-antifungal reference VHH molecule, a non-treated control and the systemic chemical Quadris Top SBX (azoxystrobin, difeconazole).
Disease severity is recorded as percent severity on a scale of 0-100%. Recording started when first symptoms appear followed by weekly assessment at least till 3 weeks after the second application (application B) of the active ingredient. Percent severity ratings are separated based on the position on the plant: Percent severity low canopy, Percent severity mid canopy and Percent severity upper canopy to track the progress of the disease well and following the natural development of the disease in nature.
Time indications in the graphs on the x-axis concern the time of recording of disease severity or incidence. These are relative and are indicated by the number of days after application when recording occurred. For example, a recording 13 Days After the second application (application B) will be represented as 13DAB. This code is applicable for FIG. 15 to FIG. 28.

B1: 10G11: VHH polypeptide, SEQ ID NO: 2, begins with a D residue (protein)
VHH: DVQLVESGGGLVQAGGSLRLSCAASRSIFSINAMDWYRQAPGKQREWVAGITRGGTTKYADSVKGRFTISRDNAKKKVYLQMNSLKPEDTAVYYCNVLRGEQPWTRDYWGQGTQVTVSS
- binding to Fraction 3 by BLI (Fraction 3): confirmed binding
- severity (PESSEV) of powdery mildew on strawberry (Podosphaera aphanis; until two weeks after the last application (FIG. 24)): clear and dose-related performance
- incidence (PESINC) of powdery mildew on strawberry (Podosphaera aphanis; until two weeks after the last application (FIG. 25)): clear and dose-related performance
- severity of powdery mildew on grape leaves (percentage of leaf area affected) (Uncinula necator; very high disease pressure (FIG. 20)): clear and dose-related performance
- severity of powdery mildew on grape bunches (percentage of infected area) (Uncinula necator; very high disease pressure (FIG. 21)): clear and dose-related performance
- percent severity (PESSEV) of Botrytis cinerea on grape bunches (Botrytis cinerea): clear and dose-related performance
- percent severity of Asian soybean rust, lower canopy (Phakopsora pachyrhizi; 250, 500, 750 g ai/ha, 2 applications, until 3 weeks after the second application, vs reference VHH and non-treated inoculated control (FIG. 15)): prominent and dose-related growth inhibition pattern
- percent severity of Asian soybean rust, mid canopy (Phakopsora pachyrhizi; 250, 500, 750 g ai/ha, 2 applications, until 3 weeks after the second application, vs reference VHH and non-treated inoculated control (FIG. 16)): prominent and dose-related growth inhibition pattern
- percent severity of Asian soybean rust, upper canopy (Phakopsora pachyrhizi; 250, 500, 750 g ai/ha, 2 applications, until 3 weeks after the second application, vs reference VHH and non-treated inoculated control (FIG. 17)): prominent and dose-related growth inhibition pattern
- activity compared with chemical reference Quadris Top SBX (Phakopsora pachyrhizi; 750 g ai/ha): on par
